Legend:
[1] = target: T1, estrogen receptor alpha (ERα) (human (endogenous in MCF-7 and T-47D)), P03372; test: structured illumination microscopy (N-SIM) of double immunofluorescence; T-47D cells, formalin-fixed paraffin cell-block sections; two primary antibodies, Alexa Fluor 488 and 594 secondaries; % of ER dimer = yellow area/(yellow + green + red areas) x 100; details: remark: other sources report otherwise
T1 chain: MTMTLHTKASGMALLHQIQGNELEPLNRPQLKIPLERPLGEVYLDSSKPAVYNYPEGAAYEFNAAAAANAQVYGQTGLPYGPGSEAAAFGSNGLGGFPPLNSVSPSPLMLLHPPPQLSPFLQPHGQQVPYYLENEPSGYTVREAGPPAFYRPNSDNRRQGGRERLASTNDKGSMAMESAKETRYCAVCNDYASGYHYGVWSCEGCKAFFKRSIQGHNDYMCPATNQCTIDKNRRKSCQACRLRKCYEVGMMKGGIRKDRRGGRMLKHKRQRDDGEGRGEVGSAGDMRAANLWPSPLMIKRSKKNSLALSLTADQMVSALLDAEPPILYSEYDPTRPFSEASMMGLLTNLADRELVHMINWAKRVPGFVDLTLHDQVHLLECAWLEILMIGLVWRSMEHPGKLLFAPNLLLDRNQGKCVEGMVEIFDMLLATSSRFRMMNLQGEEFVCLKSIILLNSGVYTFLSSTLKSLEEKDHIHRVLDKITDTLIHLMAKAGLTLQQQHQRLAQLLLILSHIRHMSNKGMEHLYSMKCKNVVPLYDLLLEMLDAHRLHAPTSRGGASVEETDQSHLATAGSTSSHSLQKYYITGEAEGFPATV

[2] = target: T1, estrogen receptor alpha (ERα) (human …); test: structured illumination microscopy (N-SIM) of double immunofluorescence; MCF-7 cells, formalin-fixed paraffin cell-block sections; two primary antibodies, Alexa Fluor 488 and 594 secondaries; % of ER dimer = yellow area/(yellow + green + red areas) x 100; homodimer also followed with 10 nM E2 for 15, 45, 90 min; details: remark: other sources report otherwise

% of ER dimer (N-SIM) [1]: 13.4% | % of ER dimer (N-SIM) [2]: 23%
B1: estrogen receptor alpha (ERα), P03372 1-595 (receptor)
chain: T1 chain

Source: article PMC5433938
